Reference: the supplement of paper PMC5998384

Tests used:
[1] = system: HeLa Kyoto; experiment: solubility change mitosis vs G1/S (difference of NP-40 vs SDS log2 ratios) (log2 ratio difference); higher = more soluble in mitosis
[2] = system: HeLa Kyoto; experiment: thermal stability score vs G1/S (z-score of summed log2 fold changes over temperatures); higher = more thermally stable than in G1/S
[3] = system: HeLa Kyoto; experiment: melting temperature (median over replicates), in situ; higher = more thermally stable
[4] = system: HeLa Kyoto; experiment: solubility in G1/S (NP-40 vs SDS abundance) (log2 ratio); higher = more soluble; conditions: cell cycle stage: G1/S
[5] = cell cycle stage: early G1 (4.5 h after nocodazole release)
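Wherever melting temperature (median over replicates), in situ is given: HeLa Kyoto cells synchronized by double thymidine or nocodazole block, proteins quantified by TMT10plex mass spectrometry, three independent biological replicates.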
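Wherever solubility change mitosis vs G1/S (difference of NP-40 vs SDS log2 ratios) is given: synchronized HeLa Kyoto cells (double thymidine block for G1/S, nocodazole release for mitosis), protein amounts in NP-40 versus SDS lysates quantified by mass spectrometry, three biological replicates.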
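Wherever solubility in G1/S (NP-40 vs SDS abundance) is given: HeLa Kyoto cells arrested at G1/S by double thymidine block, proteins quantified by TMT10plex mass spectrometry in mild NP-40 versus SDS extracts, three biological replicates.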
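Wherever thermal stability score vs G1/S (z-score of summed log2 fold changes over temperatures) is given: synchronized HeLa Kyoto cells, proteins quantified by TMT10plex mass spectrometry, three biological replicates, mitosis taken 0.5 h after nocodazole release, G1/S directly after double thymidine block.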

Sequence | solubility change mitosis (log2) [1] | thermal stability score [2, 5] | thermal stability score ([2]; cell cycle stage: mitosis) | melting temperature ([3]; cell cycle stage: mitosis) [°C] | solubility in G1/S (log2) [4] | melting temperature ([3]; cell cycle stage: G1/S) [°C]
MNIMNTEQSQNSIVSRIKVFEGQTNIETSGLPKKPEITPRSLPPKPTVSSGKPSVAPKPAANRASGEWDSGTENRLKVTSKEGLTPYPPLQEAGSIPVTKPELPKKPNPGLIRSVNPEIPGRGPLAESSDSGKKVPTPAPRPLLLKKSVSSENPTYPSAPLKPVTVPPRLAGASQAKAYKSLGEGPPANPPVPVLQSKPLVDIDLISFDDDVLPTPSGNLAEESVGSEMVLDPFQLPAKTEPIKERAVQPAPTRKPTVIRIPAKPGKCLHEDPQSPPPLPAEKPIGNTFSTVSGKLSNVERTRNLESNHPGQTGGFVRVPPRLPPRPVNGKTIPTQQPPTKVPPERPPPPKLSATRRSNKKLPFNRSSSDMDLQKKQSNLATGLSKAKSQVFKNQDPVLPPRPKPGHPLYSKYMLSVPHGIANEDIVSQNPGELSCKRGDVLVMLKQTENNYLECQKGEDTGRVHLSQMKIITPLDEHLRSRPNDPSHAQKPVDSGAPHAVVLHDFPAEQVDDLNLTSGEIVYLLEKIDTDWYRGNCRNQIGIFPANYVKVIIDIPEGGNGKRECVSSHCVKGSRCVARFEYIGEQKDELSFSEGEIIILKEYVNEEWARGEVRGRTGIFPLNFVEPVEDYPTSGANVLSTKVPLKTKKEDSGSNSQVNSLPAEWCEALHSFTAETSDDLSFKRGDRIQILERLDSDWCRGRLQDREGIFPAVFVRPCPAEAKSMLAIVPKGRKAKALYDFRGENEDELSFKAGDIITELESVDDDWMSGELMGKSGIFPKNYIQFLQIS [SH3D19] | -0.127 | 0.0615 | -0.175 | 49 | 0.173 | –
MNNQKQQKPTLSGQRFKTRKRDEKERFDPTQFQDCIIQGLTETGTDLEAVAKFLDASGAKLDYRRYAETLFDILVAGGMLAPGGTLADDMMRTDVCVFAAQEDLETMQAFAQVFNKLIRRYKYLEKGFEDEVKKLLLFLKGFSESERNKLAMLTGVLLANGTLNASILNSLYNENLVKEGVSAAFAVKLFKSWINEKDINAVAASLRKVSMDNRLMELFPANKQSVEHFTKYFTEAGLKELSEYVRNQQTIGARKELQKELQEQMSRGDPFKDIILYVKEEMKKNNIPEPVVIGIVWSSVMSTVEWNKKEELVAEQAIKHLKQYSPLLAAFTTQGQSELTLLLKIQEYCYDNIHFMKAFQKIVVLFYKAEVLSEEPILKWYKDAHVAKGKSVFLEQMKKFVEWLKNAEEESESEAEEGD [BZW1] | -0.105 | 2.93 | 6.17 | 48.8 | 0.625 | 49.3
MNNSGADEIGKLFVGGLDWSTTQETLRSYFSQYGEVVDCVIMKDKTTNQSRGFGFVKFKDPNCVGTVLASRPHTLDGRNIDPKPCTPRGMQPERTRPKEGWQKGPRSDNSKSNKIFVGGIPHNCGETELREYFKKFGVVTEVVMIYDAEKQRPRGFGFITFEDEQSVDQAVNMHFHDIMGKKVEVKRAEPRDSKSQAPGQPGASQWGSRVVPNAANGWAGQPPPTWQQGYGPQGMWVPAGQAIGGYGPPPAGRGAPPPPPPFTSYIVSTPPGGFPPPQGFPQGYGAPPQFSFGYGPPPPPPDQFAPPGVPPPPATPGAAPLAFPPPPSQAAPDMSKPPTAQPDFPYGQYAGYGQDLSGFGQGFSDPSQQPPSYGGPSVPGSGGPPAGGSGFGRGQNHNVQGFHPYRR [DAZAP1] | -0.0921 | -1.35 | -1.24 | 53.7 | 0.412 | 53.6
MNNSLENTISFEEYIRVKARSVPQHRMKEFLDSLASKGPEALQEFQQTATTTMVYQQGGNCIYTDSTEVAGSLLELACPVTTSVQPQTQQEQQIQVQQPQQVQVQVQVQQSPQQVSAQLSPQLTVHQPTEQPIQVQVQIQGQAPQSAAPSIQTPSLQSPSPSQLQAAQIQVQHVQAAQQIQAAEIPEEHIPHQQIQAQLVAGQSLAGGQQIQIQTVGALSPPPSQQGSPREGERRVGTASVLQPVKKRKVDMPITVSYAISGQPVATVLAIPQGQQQSYVSLRPDLLTVDSAHLYSATGTITSPTGETWTIPVYSAQPRGDPQQQSITHIAIPQEAYNAVHVSGSPTALAAVKLEDDKEKMVGTTSVVKNSHEEVVQTLANSLFPAQFMNGNIHIPVAVQAVAGTYQNTAQTVHIWDPQQQPQQQTPQEQTPPPQQQQQQLQVTCSAQTVQVAEVEPQSQPQPSPELLLPNSLKPEEGLEVWKNWAQTKNAELEKDAQNRLAPIGRRQLLRFQEDLISSAVAELNYGLCLMTREARNGEGEPYDPDVLYYIFLCIQKYLFENGRVDDIFSDLYYVRFTEWLHEVLKDVQPRVTPLGYVLPSHVTEEMLWECKQLGAHSPSTLLTTLMFFNTKYFLLKTVDQHMKLAFSKVLRQTKKNPSNPKDKSTSIRYLKALGIHQTGQKVTDDMYAEQTENPENPLRCPIKLYDFYLFKCPQSVKGRNDTFYLTPEPVVAPNSPIWYSVQPISREQMGQMLTRILVIREIQEAIAVANASTMH [QRICH1] | -0.197 | 3.16 | 5.23 | 49.3 | 0.184 | 47
MNPEKDFAPLTPNIVRALNDKLYEKRKVAALEIEKLVREFVAQNNTVQIKHVIQTLSQEFALSQHPHSRKGGLIGLAACSIALGKDSGLYLKELIEPVLTCFNDADSRLRYYACEALYNIVKVARGAVLPHFNVLFDGLSKLAADPDPNVKSGSELLDRLLKDIVTESNKFDLVSFIPLLRERIYSNNQYARQFIISWILVLESVPDINLLDYLPEILDGLFQILGDNGKEIRKMCEVVLGEFLKEIKKNPSSVKFAEMANILVIHCQTTDDLIQLTAMCWMREFIQLAGRVMLPYSSGILTAVLPCLAYDDRKKSIKEVANVCNQSLMKLVTPEDDELDELRPGQRQAEPTPDDALPKQEGTASGGPDGSCDSSFSSGISVFTAASTERAPVTLHLDGIVQVLNCHLSDTAIGMMTRIAVLKWLYHLYIKTPRKMFRHTDSLFPILLQTLSDESDEVILKDLEVLAEIASSPAGQTDDPGPLDGPDLQASHSELQVPTPGRAGLLNTSGTKGLECSPSTPTMNSYFYKFMINLLKRFSSERKLLEVRGPFIIRQLCLLLNAENIFHSMADILLREEDLKFASTMVHALNTILLTSTELFQLRNQLKDLKTLESQNLFCCLYRSWCHNPVTTVSLCFLTQNYRHAYDLIQKFGDLEVTVDFLAEVDKLVQLIECPIFTYLRLQLLDVKNNPYLIKALYGLLMLLPQSSAFQLLSHRLQCVPNPELLQTEDSLKAAPKSQKADSPSIDYAELLQHFEKVQNKHLEVRHQRSGRGDHLDRRVVL [VAC14] | -0.133 | -1.83 | -1.68 | 53.9 | 0.0329 | 53.3
